Source: patent US12441790B2, “Binding proteins to the human thrombin receptor, PAR4” (MONASH UNIVERSITY, priority 2017, dated 2025)
Changes are numbered by the printed parent chain.

B1: 5H.RF2: anti-PAR4 monoclonal antibody, IgG2a/K, SEQ ID NOs 107 and 108 (antibody, V domains shown)
VH: QVQLQQWGAGLLKPSETLALTCAVYGGSLSDYYWSWIRQPPGKGLEWIGEINHSGTTNYNPSLKSRVTISVDTSKKQFSLKLSSVTAADTAVYYCAIEYSNSRGYYYGMDVWGQGTTVTVSS
VL: DIQMTQSPSSLSASAGDRITITCRASQTISNYLNWYQQKPGKAPKLLIYAASSLQSGVPSRFSGSGSGTDFTLTISSLQPEDFASYYCRQNYNTPLTFGGGTKVEIK
modifications: VH of 5H.RF2; VL of 5H.RF2
B2: MoB5H F2: hybridoma supernatant clone, second screening; likely parent of 5H.RF2 (antibody, V domains shown)
VH: B1 VH
VL: B1 VL
B3: MoB5H H4: hybridoma supernatant clone, second screening; likely parent of 5H.RH4 (antibody, V domains shown)
VH: QVQLQQWGAGLLKPSETLSLTCAVYGGSFSNYYWSWIHQPPGKGLEWIGEINHSGSTNYNPSLKSRVTISVDTSKKQFSLNLSSVTAADTAVYYCKVEHSSSSGHYYYGMDVWGQGTTVTVSS
VL: B1 VL with A15V, I19V, N31Y, S53R, A84T, S85T, R89Q, N91S, N93S, E105G
B4: 5I.RG1: anti-PAR4 monoclonal antibody, IgG3/K, SEQ ID NOs 45 and 46 (antibody, V domains shown)
VH: QVQLQQWGAGLLKPSETLSLACAISSGSFSTYFWRWIRQPPGKGLEWIGEIIHTGSTTYNPSLKSRVTISVDTSKNQLSLKLSSVTAADTAVYYCAFEYSSSGGYYYGMDVWGQGTTVTVSS
VL: DIQMTQSPSSLSASVGDRVTITCRASQSISSYLNWYQQIPGKAPNLLIYAASSLRSGVPSRFSGSGSGTDFTLTISSLQPEDFATYYCQQTYSTPLTFGGGTKVEIK
modifications: VH of 5I.RG1; VL of 5I.RG1
B5: MoB5I G1: hybridoma supernatant clone, second screening; likely parent of 5I.RG1 (antibody, V domains shown)
VH: B4 VH
VL: B4 VL

How the values were obtained:
human whole blood = assay: Human whole blood thrombosis assay; type: cell-based; conditions: 10 minute endpoint; 5A.RC3 100 μg/ml, hirudin 800 U/ml
Procedure: Human whole blood collected in citrate (3.2%) was pre-incubated for 15 min at 37° C. with PE-conjugated anti-CD9 antibody (4 μg/mL) and an anti-fibrin antibody (5 μg/ml), and one of hirudin (800 U/ml), DMSO (1% v/v), PAR-1 antagonist E5555 (1 μM), anti-PAR4 antibody (0.2 mg/ml) or the combination of both PAR inhibitors. Whole blood was re-calcified with 5-7.5 mM CaCl2 (final concentration) to initiate coagulation, and drawn over glass microslides (1×0.1 mm internal diameter) coated with bovine type 1 collagen (250 μg/ml) at a fixed flow rate of 0.06 ml/min, resulting in a wall shear rate of 600 s^−1. Dual colour confocal fluorescence images were recorded at 488 and 561 nm excitation, collected through a 40× water immersion objective. Confocal z-stacks were continuously recorded for 2 min before modified, calcium-free Tyrode's buffer was flowed over the thrombi and z-stacks encompassing the entire height of the thrombus field were recorded over a period of 10 min. Platelet thrombi were defined using anti-CD9-PE and fibrin volume was quantified using average fluorescence of the thrombus field. Data were normalised against the hirudin baseline and expressed as a percentage of the control.
Thrombosis parameters including platelet deposition, thrombin activity, fibrin volume and ratio of fibrin per thrombus were measured in real-time over a period of 10 minutes in a whole blood thrombosis assay as described herein under conditions of coagulation.
Platelet deposition (PE-conjugated anti-CD9), thrombin activity (FRET-based thrombin probe), fibrin volume (Dylight650-conjugated anti-fibrin antibody) and the ratio of fibrin per thrombus at the 10 minute end-point is shown in FIG. 10A by confocal microscopy (to allow for volume measurements to be taken) using a Nikon Air with a 25× lens and 2× digital magnification.
The volume of human thrombi formed after 3 min was quantified by confocal microscopy in an ex vivo human whole blood thrombosis assay.

[1] = biological target: T1, hPAR4-biotinylated peptide (Homo sapiens, UniProt Q96RI0); assay: SA chip biotin peptide SPR (Biacore, streptavidin capture); type: binding
T1 construct: host or cells: synthetic peptide
Procedure: (§1) Biacore analysis was performed on a Biacore T200 using two different methods either an anti-mouse Fc capture approach or using a similar method as described above using the ProteoOn system.
A series S sensor chip SA was conditioned using the manufacturers recommended protocol and immobilised with 1 ug/ml hPAR4-biotinylated peptide on FC2 and hPAR1-biotinylated peptide as a control onto FC1. […] Blank injections of buffer alone were also performed. All injections were performed in duplicate and in a random order. After each capture/injection/dissociation cycle the chip was regenerated with a 30 second injection of 0.1M Glycine pH2.0.
(§2) For the mAb capture method low levels of ligand mAb and analyte hPAR4 were used in an attempt to produce a 1:1 binding interaction, this method has been used successfully to measure kinetics and affinity KD's (Kamat V and Rafique A (2017) Analytical Biochemistry 530:75-86), despite using a whole IgG.
(§3) The kinetics of the binding interaction between the mAbs and hPAR4 was measured using Surface Plasmon Resonance (SPR; Biacore) by two different methods: 1. Anti-mouse Fc mAb capture method and 2. Streptavidin (SA) chip to capture biotinylated peptide. The ka(on) rate and kd(off) rates and KD were measured and fitted to a Langmuir model using the Biacore evaluation software.

hPAR4 peptide [2] = biological target: T2, hPAR4 peptide (Homo sapiens, UniProt Q96RI0); assay: ELISA of purified mAbs on hPAR4 peptide; type: binding; conditions: dilutions of purified mAbs
T2 construct: host or cells: synthetic peptide
Procedure: as §3
The experiment was completed with purified mAbs diluted in PBS instead of hybridoma supernatants.
The reactivity of seven purified anti-hPAR4 mAbs was analysed by ELISA (see Table 4).

hPAR4 peptide [3] = biological target: T2, hPAR4 peptide; assay: mAb capture SPR (Biacore, anti-mouse Fc capture); type: binding
Procedure: as §1
A series S CM5 sensor chip was activated with standard EDC/NHS amine coupling chemistry using the manufacturers recommended protocol with Goat anti-mouse IgG Fc. Anti-hPAR4 mAbs were captured at 1-2 ug/ml for 2 minutes at 10 ul/minute on flow cell 2 (FC2) and flow cell 1 (FC1) was used as a reference channel. […] Blank injections of buffer alone were also performed. All injections were performed in duplicate and in a random order. After each capture/injection/dissociation cycle the chip was regenerated with a 30 second injection of 0.1M Glycine pH2.0.
as §2, §3

human platelets = assay: Functional screen of hybridoma supernatants by platelet aggregation assay; type: cell-based; conditions: aggregation as % of control
Procedure: Platelet aggregation was measured by light transmission aggregometry in a 96-well plate format. Human isolated platelets (2×10^8/ml) were pre-treated for 10 mins at 37° C. with dimethylsulfoxide (DMSO) (1% v/v), the PAR1 antagonist vorapaxar (90 nM), the anti-PAR4 antibody 5RC3 (20-100 μg/ml), or a combination of vorapaxar and 5RC3. Platelets were treated with one of thrombin (0.1 U/ml) and aggregation was analysed at 37° C. in a FLUOstar OPTIMA plate reader (BMG Labtech) using a 595 nm excitation filter, for a period of 50 min (10 read cycles with 5 min double orbital shake period between each read). Optical density was normalised against the blank (maximum) and unstimulated platelets (minimum) and expressed as % maximum.
Thrombin-induced platelet aggregation in the presence of a PAR1 antagonist (i.e. PAR4-dependent aggregation) is shown for 30 monoclonal antibody supernatants binding to human platelets. Antibody supernatant was mixed with human platelets (2×10^8 cells) at a 1:1 ratio.

T2 sequence (Q96RI0 35-54 limits assumed): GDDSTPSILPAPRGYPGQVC
T1 sequence (Q96RI0 with tags, fused parts or gaps limits assumed): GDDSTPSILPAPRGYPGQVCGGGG

Molecule	ka [1] [M⁻¹ s⁻¹]	kd [1] [s⁻¹]	reactivity with hPAR4 peptide by ELISA (hPAR4 peptide [2])	ka (hPAR4 peptide [3]) [M⁻¹ s⁻¹]	kd (hPAR4 peptide [3]) [s⁻¹]	Functional screen on hybridoma supernatants (human platelets)	also measured
hirudin [reference compound]							fibrin volume (human whole blood): abolished; platelet deposition (human whole blood): continued platelet deposition; thrombin activity (human whole blood): abolished
B1	1.84e+06	0.00111	least reactive	58400	0.00227		
B2						no	
B3						Yes (+) (aggregation between 50-80% of control)	
B4	1.85e+06	0.000667	least reactive	14000	0.00146		
B5						Yes (+) (aggregation between 50-80% of control)	
